From patent US20240400654A1 come the findings set out here.

The labels stand for the following.
B1: KB001 mouse Fab VL S27K (Fab, V domains shown)
VH: EVQLKQSGPGLVAPSQSLSITCTVSGFSLSIYSVHWVRQPPGKGLEWLGMIWGGGSSDYNSALKSRLSISKDNSKSQVFLKMNSLQTDDTAMYYCARNGNFYAMDYWGQGTSVTVSS
VL: QIVLTQSPAIMSASLGERVTMTCTASKSVSSSFLHWYQQKPGSSPQLWIYSTSNLASGVPARFSGSGSGTSYSLTISSMEAEDAATYYCHQYHHSPYIYTFGGGTKLEIK
B2: KB001 mouse Fab VL L55P (Fab, V domains shown)
VH: B1 VH
VL: B1 VL with K27S, L55P
B3: KB001 mouse Fab VL S28P (Fab, V domains shown)
VH: B1 VH
VL: B1 VL with K27S, S28P
B4: KB001 mouse Fab VL S31P (Fab, V domains shown)
VH: B1 VH
VL: B1 VL with K27S, S31P
B5: KB001 mouse Fab VL S31E (Fab, V domains shown)
VH: B1 VH
VL: B1 VL with K27S, S31E
B6: KB001 mouse Fab VL S28G (Fab, V domains shown)
VH: B1 VH
VL: B1 VL with K27S, S28G
B7: KB001 mouse Fab VL S28W (Fab, V domains shown)
VH: B1 VH
VL: B1 VL with K27S, S28W
B8: KB001 mouse Fab VL S53K (Fab, V domains shown)
VH: B1 VH
VL: B1 VL with K27S, S53K
B9: KB001 mouse Fab VL S53Q (Fab, V domains shown)
VH: B1 VH
VL: B1 VL with K27S, S53Q
B10: KB001 mouse Fab VL S31T (Fab, V domains shown)
VH: B1 VH
VL: B1 VL with K27S, S31T
B11: KB001 mouse Fab VL S53N (Fab, V domains shown)
VH: B1 VH
VL: B1 VL with K27S, S53N
B12: KB001 mouse Fab VL N54Q (Fab, V domains shown)
VH: B1 VH
VL: B1 VL with K27S, N54Q
B13: KB001 mouse Fab VL S31F (Fab, V domains shown)
VH: B1 VH
VL: B1 VL with K27S, S31F
B14: KB001 mouse Fab VL S51G (Fab, V domains shown)
VH: B1 VH
VL: B1 VL with K27S, S51G
B15: KB001 mouse Fab VL S30G (Fab, V domains shown)
VH: B1 VH
VL: B1 VL with K27S, S30G
B16: KB001 mouse Fab VL S53H (Fab, V domains shown)
VH: B1 VH
VL: B1 VL with K27S, S53H
B17: KB001 mouse Fab VL S28K (Fab, V domains shown)
VH: B1 VH
VL: B1 VL with K27S, S28K
B18: KB001 mouse Fab VL S28V (Fab, V domains shown)
VH: B1 VH
VL: B1 VL with K27S, S28V
B19: KB001 mouse Fab VL T52A (Fab, V domains shown)
VH: B1 VH
VL: B1 VL with K27S, T52A
B20: KB001 mouse Fab VL S31Y (Fab, V domains shown)
VH: B1 VH
VL: B1 VL with K27S, S31Y
B21: KB001 mouse Fab VL L55N (Fab, V domains shown)
VH: B1 VH
VL: B1 VL with K27S, L55N
B22: KB001 mouse Fab VL N54S (Fab, V domains shown)
VH: B1 VH
VL: B1 VL with K27S, N54S
B23: KB001 mouse Fab VL S30F (Fab, V domains shown)
VH: B1 VH
VL: B1 VL with K27S, S30F
B24: KB001 mouse Fab VL T52S (Fab, V domains shown)
VH: B1 VH
VL: B1 VL with K27S, T52S
B25: KB001 mouse Fab VL N54R (Fab, V domains shown)
VH: B1 VH
VL: B1 VL with K27S, N54R
B26: KB001 mouse Fab VL S57N (Fab, V domains shown)
VH: B1 VH
VL: B1 VL with K27S, S57N

Changes are numbered by the printed parent chain. Names and notes keep the numbering of the source. Values joined by “and” are separate entries in the source; they are usually repeats but may differ in a detail not shown here. Equal entries are not always repeated.

The target in this assay is HRgpA-6H (Porphyromonas gingivalis) (UniProt P28784). Briefly: ELISA, coated HRgpA-6H. In general terms: An ELISA detects its analyte on a solid surface through an enzyme-linked reagent.
UniProt P28784, sequence (P28784 228-860 limits assumed): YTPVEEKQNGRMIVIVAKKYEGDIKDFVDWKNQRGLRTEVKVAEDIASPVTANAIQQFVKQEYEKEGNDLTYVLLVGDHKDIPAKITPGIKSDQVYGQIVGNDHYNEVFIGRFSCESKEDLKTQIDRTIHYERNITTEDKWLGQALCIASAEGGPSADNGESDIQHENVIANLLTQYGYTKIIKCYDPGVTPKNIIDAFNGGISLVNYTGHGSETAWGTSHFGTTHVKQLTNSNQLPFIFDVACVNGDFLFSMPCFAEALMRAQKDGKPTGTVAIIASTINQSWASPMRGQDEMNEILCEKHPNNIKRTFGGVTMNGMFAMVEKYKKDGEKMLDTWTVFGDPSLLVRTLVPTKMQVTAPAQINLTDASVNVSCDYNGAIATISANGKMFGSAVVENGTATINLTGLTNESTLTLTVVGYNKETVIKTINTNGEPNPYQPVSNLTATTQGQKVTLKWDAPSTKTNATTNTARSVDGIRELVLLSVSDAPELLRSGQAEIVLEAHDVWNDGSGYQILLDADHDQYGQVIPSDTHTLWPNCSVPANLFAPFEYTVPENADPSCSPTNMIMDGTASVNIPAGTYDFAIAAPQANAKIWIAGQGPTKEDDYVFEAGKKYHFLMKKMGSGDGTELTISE
As to B1, the OD450 nm was 0.783 and 0.745 and 0.697; the Ratio OD(Variant)/OD(WT) is 1.04 and 0.993 and 0.929.

For the molecule B2, the OD450 nm was 0.827 and 0.764 and 0.724; the Ratio OD(Variant)/OD(WT) was 1.06 and 0.975 and 0.924.

Regarding B3, the OD450 nm is 0.808 and 0.726; the Ratio OD(Variant)/OD(WT) was 1.08 and 0.967.

In the case of B4, the OD450 nm was 0.87 and 0.875 and 0.856; the Ratio OD(Variant)/OD(WT) is 1.03 and 1.04 and 1.01.

For the molecule B5, the OD450 nm is 0.903 and 0.798; the Ratio OD(Variant)/OD(WT) was 1.07 and 0.944.

Regarding B6, the OD450 nm was found to be 0.818 and the Ratio OD(Variant)/OD(WT) came out at 1.09.

In the case of B7, the OD450 nm is 0.817 and 0.745; the Ratio OD(Variant)/OD(WT) was 1.09 and 0.993.

Consider B8, for which the OD450 nm was determined as 0.841 and the Ratio OD(Variant)/OD(WT) turned out to be 1.07.

As to B9, the OD450 nm is 0.835 and 0.751 and 0.726; the Ratio OD(Variant)/OD(WT) was 1.06 and 0.954 and 0.922.

Turning to B10, the OD450 nm was 0.859 and 0.74 and 0.782; the Ratio OD(Variant)/OD(WT) is 1.02 and 0.876 and 0.925.

For the molecule B11, the OD450 nm is 0.838 and 0.707; the Ratio OD(Variant)/OD(WT) is 1.06 and 0.898.

Take B12: the OD450 nm was 0.868 and the Ratio OD(Variant)/OD(WT) turned out to be 1.11.

As to B13, the OD450 nm was 0.854 and 0.688 and 0.693; the Ratio OD(Variant)/OD(WT) is 1.01 and 0.814 and 0.82.

With B14, the OD450 nm is 0.915 and 0.777 and 0.851; the Ratio OD(Variant)/OD(WT) is 1.05 and 0.888 and 0.973.

As to B15, the OD450 nm is 0.916 and 0.858; the Ratio OD(Variant)/OD(WT) is 1.06 and 0.995.

With B16, the OD450 nm was 0.827 and 0.777; the Ratio OD(Variant)/OD(WT) was 1.05 and 0.987.

On to B17, for which the OD450 nm was determined as 0.801 and the Ratio OD(Variant)/OD(WT) came to 1.07.

On to B18, for which the OD450 nm was 0.786 and 0.731 and 0.717; the Ratio OD(Variant)/OD(WT) is 1.05 and 0.974 and 0.955.

With B19, the Ratio OD(Variant)/OD(WT) is 1.17 and 1.08 (2×) and 0.993.

Take B20: the OD450 nm was found to be 0.849 and the Ratio OD(Variant)/OD(WT) stood at 1.

Regarding B21, the OD450 nm was 0.816 and 0.815 and 0.777; the Ratio OD(Variant)/OD(WT) was 1.04 (2×) and 0.992.

For B22, the OD450 nm is 0.835 and 0.732 and 0.776; the Ratio OD(Variant)/OD(WT) is 1.07 and 0.934 and 0.99.

On to B23, for which the OD450 nm came out at 0.911 and the Ratio OD(Variant)/OD(WT) is 1.06.

On to B24, for which the OD450 nm was 0.833 and the Ratio OD(Variant)/OD(WT) came to 1.06.

Take B25: the OD450 nm stood at 0.876 and the Ratio OD(Variant)/OD(WT) was determined as 1.12.

Consider B26, for which the OD450 nm is 0.857 and the Ratio OD(Variant)/OD(WT) is 1.05.
